Results on 41 sequences are retold here after the nanobody polyreactivity screen of Harvey et al. (2022).

A short description of this data set: yeast display, Sf9 membrane polyspecificity reagent, FACS + sequencing; frameworks hold sequencing errors. Summed up: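 Nanobodies from a synthetic yeast display library (Saccharomyces cerevisiae BJ5465), induced 36–48 hours with galactose, were stained 1 hour at 4 °C with 10% biotinylated, detergent-solubilized Sf9 membrane reagent, enriched on streptavidin microbeads, then FACS-sorted. Anti-HA (expression) and streptavidin (reagent binding) fluorescence set low and high (top ~1%) gates. Polyreactivity labels come from the gate of origin. Genes were colony-PCR amplified, MiSeq 2 × 250 sequenced and filtered by CDR length.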
“QFQLGESGGGLVQAGGSLRLSCAASGSTFSGYTKGWYRQARGKEREFVAAISSRGGSTYYADSVKGRFTISRDNAKNTVYLQMYRLNPEDTAVYYCAAKVCARVDGRQFRMEYWGQGTQVTVSS”: the “polyreactivity (PSR sort gate)” value is “high polyreactivity”.
As to “QVQLVESGGGLVQAGGSLRLSCAASGSTFGYYAMGWYRQAPGKERELVAAIRSSGGGTYYADSVKGRFTISRDNAKNTVYLQMNSLKPEDTAVYYCATDAPILVNAEYDEWLEYDYWGQGTQVTVSS”, the “polyreactivity (PSR sort gate)” value is “low polyreactivity”.
The same measure for “QVQLQESGGGLVQAGGSLRLSCAASGTIFDKDDMGWYRQAPGKEREFVAGIDRGGTTNCAGSVKGRFTISRDNAKNTVYLQMISLKPEDTEVYYCAAYYPDIYPFIYRGQGTQVTVSS”: “high polyreactivity”; for “QVQLVESGGGLVQAGGSLRLSCAASGYIFFGNAMGWYRQAPGKERELVAAIRGRGTSTYYADSVKGRFTISRDNAKNTVYLQMNSLKPEDTAVYYFDADVVRSNFYGTFMYDYDYWGQGTQVTVSS”: “low polyreactivity”; for “QVQHVESGGRLVQAGGSLRLSCAASGRTFPQYAMGWYRQAPGKERELVAAITSGDSTNYSDSVKGRFTISRDNAKNTVYLQMNSLKPEDTAVYYCAAVYYYSKWYTPYEDVYWGQGTQVTVSS”: “low polyreactivity”.
Take “QVQLQESAGGMVQAGGSLRLRCSASGYISCDASMGWYRQAPGKERELAASITKGSRTNYADSVKGRFTIRDNAKNTVYLQMNSLKPEVTAVCYCAVTYPYWGDYTYWGQGTQVTVSS”: the “polyreactivity (PSR sort gate)” value is given as “low polyreactivity”.
For “QVQLVESGGGLVQAGGSLRLSCAASGRTFRSYAMGWYRQAPGKERELVASITSSGRTNYADSVKGRFTISRDNAKNTVYLQMNSLKPEDTAVYYCAAVRYYDYLSSWRYDYWGQGTQVTVSS”, the “polyreactivity (PSR sort gate)” value is “low polyreactivity”.
“QVQLVESGGGLVQAGGSLRLSCAASGSIFNSNAMGWSRQAPGKERELVAVISWSDGSTRYADSVKGRFTISRDNAKNTVYLQMNSLKPEDTAVYYCNADLVYYYRQEVDYWGQGTQVTVSS”: the “polyreactivity (PSR sort gate)” value is recorded as “low polyreactivity”.
“QVQLVESGGGLVQAGGSLRLSCAASGRTFYNNAMGWYRQAPGKERELVAVISRGGTTYYPDSVKGRFTISRDNAKNTVYLQMNSLKAEDTSVYYCAKQVPSGDSSSQMGSWGQGTQVTVSS”: the “polyreactivity (PSR sort gate)” value is “low polyreactivity”.
Under “QVQLVESGGGLVQAGGSLRLSCAASGRIFASKAMGWYRQAPGKERELVAAITTTGGSTYYADSVKGRFTISRDNAKNTVYLQMNSLKPEDTAVYYCASRAIPRVRRYGSMNYWGQGTQVTVSS” stands “high polyreactivity”; under “QVQLVESGGGLVQAGGSLRLSCAASGRTLARNAMGWYRQAPGKERELVASINGRTTRTYYADSVKGRFTISRDNAKNTVYLQMNSLKPEDTAVYYCAADPPGYVYGKRYYWGQGTQVTVSS”, “high polyreactivity”; under “QVQLEVSGGVLVQPGGSIRLSCAASGFIFGFYAKGWYRQAPGKERELVASISGRGGRTSYADSVKGRFTISRDNAKNTVYLQMNSLKPEDTAVYYCNKAGYGVSRKYDYWGQGTQVNVSS”, “high polyreactivity”.
With “NVQLVESGGGLVQAGGSLRLSCAASGSTFDYYDMGWYRQAPWKERELVATITSGGSTNYADSVKGRFTITRDNAKNTVYLLMHSLKPEDTAVYYCDARIRSVVPFDMDYWGQGTQVTVSW”, the “polyreactivity (PSR sort gate)” value is recorded as “low polyreactivity”.
Turning to “QVQLQESGGGLVQAGGSLRLSCAASGTILYSLGMGWYRQAPGKRREFVASITWGTTTNYAESVKGRFTISRDNAKNTVYPQMNSLKPDVTAVYDCAAPPFGDSSYHYWGQGTQVTVSS”, the “polyreactivity (PSR sort gate)” value was “low polyreactivity”.
Under “QVQLVESGGGLVQAGGSLRLSCAAAGSTFSSYAMGWYRQAPGKERELVAAITSSGGSTYYADSVKGRFSISRDNAKNTVYIQKNSLKPEDTAVYYCAAADVIFWLYYYWGQGTQVTVSS” stands “low polyreactivity”; under “QIQLVESGGGLVQAGGSLRLSCAASGSIFSGYAMGWYRQAPGKERELVAAITSGGSTDYADSVKGRFTISRDNAKNTVYLQMNSLKPEDTAVYYCAAEGGYSSYGYDYWGQGTQVTVSS”, “low polyreactivity”; under “QVQLVESGGGLVQAGGSLRISCAASGRIFHANAMGWYRQAPGKERELLAGISRNGGRTYYADSVKGRFTISRDNAKYTVYLQMNSLKPEDTAVYYCAADGLTGSKYRATGYYWGQGTQVTVSS”, “high polyreactivity”.
Regarding “QVQLVESGGGLVQAGGSLRLSCAASGRTFRRYAMGWYRQAPGKEREWVAAISRTGSTNNYADSVKGRFTISRDNAKKTVYLQLNSLKPEDTAVYDCNGQLILGYGYDYWGQGTQVTVSS”, the “polyreactivity (PSR sort gate)” value is on record as “high polyreactivity”.
The same measure for “QVQLVESGGGLVQAGGSLRLSCAASGITFYYYAMGWYRQAPGKERELVAAISRSGGRTYYADSVKGRFTISRDNAKNTVYLQMNSLKPEDTAVYYCAAVRYQGGDSSIEYDYWGQGTQVTVSS”: “high polyreactivity”.
The same measure for “QVQLVESGGCLVQAGGSLRLSCAASGSIFDAYDKGWYRQAPGKERELVAAISRSGASTYYADSVKGRFTISRDNAKNTVYLQMNSLKPEDTAVYSCAARDRQRVSYGYWGQGTQVTVTS”: “high polyreactivity”.
On to “QVQLVESGGFLVQAGGSHRLSCAASGFTFQSNSMVWYRQAPGKERELVATITYSGGRTYYADSVKGRFTISRDNAKNTVYLQMNSLKPEDTAVYSCAARLAPLYRTYYYWGQGTQVTVSS”, for which the “polyreactivity (PSR sort gate)” value is on record as “low polyreactivity”.
On to “QVQLVESGGGLVQAGGSLRISCAASGIIFGEYAMGWYRQAPGKERELVAAISQSGGTYYADSVKGRFTISRDNAKNTVYLQMNSLKPEDTAVYYCNADYWAYISRVRYDYWGQGTQVTVSS”, for which the “polyreactivity (PSR sort gate)” value is reported as “low polyreactivity”.
“QVQLVESVGGLVQAGGSHRLSCAASGSTFYRYAMGWYRQAPGKERELVAAISRSGGTTYYADSVKGRFTISRDNAKNTVYLQMNSLKPDDTAVYYCNARGRYEYGYWGQGTEVTVSS”: the “polyreactivity (PSR sort gate)” value is reported as “high polyreactivity”.
Under “QVQLVESGGGLVQAGGSLRLSCAASGSTLAYNAMGWYRQAPGKERELVAAISSNGDSTYYADSVKGRFTISRDNAKNTVYLQMNSLKPEDTAVYYCAAGYYSRYYEAFEYYYWGQGTQVTVSS” stands “high polyreactivity”; under “QVQLVESGGGLVQAGGSLRLSCAASGFTIRYYALGWYRQAPGKERELVAAISRGGSTTYADSVKGRFTISRDNAKNTVYLQMNSLKPEDTAVDYCAVYSKWSVTYDYWGQGTQVTVSS”, “high polyreactivity”; under “QVQLVESGGGLVQAGGSLRLSCAASGLTFQHYAMGWYRQAPGKERELVASISYSGGGTYADSVKGRFTISRDNAKNTVYLQMNSQKPEDTAVYYCATSLQRQFDYWGQGTQVTVSS”, “low polyreactivity”.
As to “QVQLVESGGGLVQARGSLRLSCAASAFIIPVYTIGWYRQAPGKERELVAAITQIGGSTHYADSVKGRFTISRANAKNTVYLQMNSLKPEDTAVYYCAVDYDSYWYGTYVNEYDYWGLGTQVTVSS”, the “polyreactivity (PSR sort gate)” value was “low polyreactivity”.
“QVQLVESGGGLVQAGGSLRLSCAASGSIFSTYAMGGYRQAPGKERELVAAIRDSGDRTYYADSVKGRFTISRDNAKNTVYLQMNSLKPDDTAVYYCYARWQEPLKYDYWGQGTPVTVSS”: the “polyreactivity (PSR sort gate)” value is listed as “low polyreactivity”.
The same measure for “QVQLVESGGGLVQAGGSLRLSCAASGSTFAVYAMGWYRQAPGKERELVAVISRGANTNYADSVKGRFTISRDNAKNTVYLQMNSLKPEDTAVYYCAAPSYFTHRGRFDYWGQGTQVTVSS”: “low polyreactivity”.
Under “QVQLVESGGGLVQAGGSLRLSCAASGRTSEIYTMGWYRPAPGKERELVASINTNYADSVKGGFTNSRDNAKNTVYLQMNCLKPEDTAVYYCNADDTIEFNYWGQGTQVTVSW” stands “low polyreactivity”.
In the case of “QVQLVESGGGLVQAGGSLRFSCAASGSTFQYYAMGWYRQAPGKEREFVAAIRSSGGTTYYADSVKGRFTLSRDNAKNTVYLQMNSLKPEDTAVYYCAATTKYNGRRSYFKFDYWGQGTQVTVSS”, the “polyreactivity (PSR sort gate)” value is on record as “high polyreactivity”.
Regarding “QVQLVESGGGLVQAGGSLRLSCAASGSTFRFYAMGWYRQAPGKERELVAAINGSGGSTYYADSVKGRFTISRDIAKNSVYLQMNSLKPEDTAVYYCAVLYRYGYDYWGQGTQVTVSS”, the “polyreactivity (PSR sort gate)” value was “low polyreactivity”.
Under “QVQLVESGGGLVQAGGSLRLSCAASGSIFTNYPMGCYRQAPGKERELVAAISQSGDTTYYADSVKGRFTISRDNAKNTVYLQMNSLKPEDSSVYYCAAQYYRWFYYWGQGTQVTVSS” stands “high polyreactivity”; under “QVQLVESGGGLLQAGGSLRLSCAASGRTFATYAMGWYRQAPGKERELVAAITSGGSTNYADSVKGRFTISRDNAKNTVYLQMNSLKPEDTAVYYCNAYKTNRGSGPWYTGRYDYWGQGTQVTVSS”, “low polyreactivity”; under “QVQLVESGGGLVQAGGSLRLSCAASGSIFIGSVMGWYRQAPGKERELVADITWSGGSTYYADSVKGRFTISRANAKNTVYLQMNSLKPEDTAVYYCAARTFVIGDYDYWYALDSWGQGTQVTVSS”, “low polyreactivity”.
For the sequence “QVQLVESGGGLVQAGGSLRLSCAASGITFLPYARGWYRQAPGKERELVAAITRGGGSTYADSVKGRFTISRDNAKNTVYLQMNSLKPEDTAVYYCAKRYGRVSWYEDYDYWGQGTQVTVSS”, the “polyreactivity (PSR sort gate)” value is given as “low polyreactivity”.
Take “QVQLVESGGCLVQAGGSLRLTCAASGFIFPYYAMGWYRQAPGKERELVAGITGADSTYYADSVKGRFTISRDNAKNTVYLQMNSLKPEDTAVYYCARKRYSLSRTYNYGYWGQGTQVTVSS”: the “polyreactivity (PSR sort gate)” value was “high polyreactivity”.
On to “QVQLVESGGGLVQAGGSLRLSCAASGSIFVRNGMGWYRQAPGKERELVASITSGTITYYADSVKGRFTISRDNAKNTVYLQINSLKPEDTAVYYCNAGCRSSRFKRPYFRERNYWGQGTQVTVSS”, for which the “polyreactivity (PSR sort gate)” value is listed as “high polyreactivity”.
The same measure for “QVQLVESGGGLVQAGGSLRLSCAASGRIVGRYVMGWYRQARGKERELVAAITSGGSTYYADSVKGRFTISRDNAKNTVYLQMNSLKPEDTAVYYCAAKWRSPRYYLYGYWGQGTQVTVSS”: “high polyreactivity”; for “QVQHVESGGGLVQPGGSLRLSCAASGYTFYANAMGWYRQAPGKEREFVASITWSGGSSYYADSVKGRFTISRDNAKNTVYLHLNSLKPEDTAVYYCAAESWFKYDYWGQGTQVTLSS”: “low polyreactivity”; for “QVQLVESGGGLVQAGGSLRLSCAASGSIFWWNTMGWYRQAPGTERELVAAITFSGGSTYYADSVKGRFTISRDNAKNTVYLQMNSLKPEDTAVYYCNADGWVSVRGTWSDGGYWGQGTQVTVSS”: “low polyreactivity”.
